Measured values: article PMC4335062, “Data-Driven Prediction and Design of bZIP Coiled-Coil Interactions” (PLoS Computational Biology, 2015)
Where no end group is shown, it is not given here.

Columns and labels:
[1] = target: T1, JUN/FOS heterodimer (Homo sapiens, UniProt P05412); experiment: Competition FRET assay; type: binding
T1 construct: made in house
Protocol: The amount of acceptor used varied for each curve, taking into account the Kd of the FRET complex in order to obtain a good lower baseline for fitting purposes. Samples were equilibrated for one hour before reading the plates; repeated reading of the plates over several hours gave no change in signal. For the competition experiments, the IC50 was determined in MATLAB by fitting the binding data to the equation signal=[…] , where a and b are the lower and upper baselines, c is the IC50 value, x is the inhibitor concentration, and the Hill coefficient H was set to 1. Ki values were calculated as in Fu et al..

[2] = target: ATF6B (Homo sapiens, UniProt Q99941); experiment: FRET or BRET; direct-binding FRET in 384-well plates; rhodamine-labelled design (acceptor) titrated 0 to 1 uM into 10 nM fluorescein-labelled bZIP (donor); 150 mM KCl, 50 mM potassium phosphate pH 7.4, 0.1% Tween-20, 0.1% BSA; 23 °C
Chain of ATF6B (Q99941 whole entry): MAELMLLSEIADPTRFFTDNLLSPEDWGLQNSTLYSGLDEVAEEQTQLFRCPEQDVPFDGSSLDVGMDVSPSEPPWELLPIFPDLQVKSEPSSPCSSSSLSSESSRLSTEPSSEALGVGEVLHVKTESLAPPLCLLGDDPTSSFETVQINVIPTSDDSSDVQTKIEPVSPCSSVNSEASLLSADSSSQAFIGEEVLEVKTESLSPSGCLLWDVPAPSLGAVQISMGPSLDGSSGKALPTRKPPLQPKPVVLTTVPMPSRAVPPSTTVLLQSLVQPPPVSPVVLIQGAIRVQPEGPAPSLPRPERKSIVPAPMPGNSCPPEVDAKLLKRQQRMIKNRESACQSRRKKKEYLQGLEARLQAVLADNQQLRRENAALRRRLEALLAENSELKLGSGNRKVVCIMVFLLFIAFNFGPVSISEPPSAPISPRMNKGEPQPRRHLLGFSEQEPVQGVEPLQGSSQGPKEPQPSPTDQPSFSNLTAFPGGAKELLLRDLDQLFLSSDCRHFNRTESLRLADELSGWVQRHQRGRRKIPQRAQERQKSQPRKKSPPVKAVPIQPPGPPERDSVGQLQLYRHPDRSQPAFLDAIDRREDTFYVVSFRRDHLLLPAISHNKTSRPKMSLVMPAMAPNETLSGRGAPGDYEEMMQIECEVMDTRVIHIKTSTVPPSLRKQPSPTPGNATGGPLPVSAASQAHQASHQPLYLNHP

[3] = target: T2, FOS (Homo sapiens, UniProt P01100); experiment: as above
T2 sequence (P01100 whole entry): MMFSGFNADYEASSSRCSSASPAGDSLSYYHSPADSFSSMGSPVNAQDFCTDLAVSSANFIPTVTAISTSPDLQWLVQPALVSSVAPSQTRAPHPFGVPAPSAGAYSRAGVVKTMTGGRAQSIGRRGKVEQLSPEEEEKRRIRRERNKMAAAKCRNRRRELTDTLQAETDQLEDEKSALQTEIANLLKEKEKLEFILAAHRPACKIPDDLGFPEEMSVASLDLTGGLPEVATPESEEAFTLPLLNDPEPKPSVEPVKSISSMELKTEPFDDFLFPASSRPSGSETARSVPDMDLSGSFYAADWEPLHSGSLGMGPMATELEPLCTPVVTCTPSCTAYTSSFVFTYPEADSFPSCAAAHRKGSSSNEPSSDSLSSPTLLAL

[4] = target: MAF (Homo sapiens, UniProt O75444); experiment: as above
[5] = target: MAFB (Homo sapiens, UniProt Q9Y5Q3); experiment: as above
[6] = target: MAFG (Homo sapiens, UniProt O15525); experiment: as above
Chain of MAFG (O15525 whole entry): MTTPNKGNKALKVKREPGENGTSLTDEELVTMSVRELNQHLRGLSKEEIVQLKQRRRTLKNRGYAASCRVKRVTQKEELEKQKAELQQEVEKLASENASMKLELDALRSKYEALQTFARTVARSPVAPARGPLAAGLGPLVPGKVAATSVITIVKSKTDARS

[7] = target: NFE2L3 (human) (UniProt Q9Y4A8); experiment: as above
Chain of NFE2L3 (human) (Q9Y4A8 whole entry): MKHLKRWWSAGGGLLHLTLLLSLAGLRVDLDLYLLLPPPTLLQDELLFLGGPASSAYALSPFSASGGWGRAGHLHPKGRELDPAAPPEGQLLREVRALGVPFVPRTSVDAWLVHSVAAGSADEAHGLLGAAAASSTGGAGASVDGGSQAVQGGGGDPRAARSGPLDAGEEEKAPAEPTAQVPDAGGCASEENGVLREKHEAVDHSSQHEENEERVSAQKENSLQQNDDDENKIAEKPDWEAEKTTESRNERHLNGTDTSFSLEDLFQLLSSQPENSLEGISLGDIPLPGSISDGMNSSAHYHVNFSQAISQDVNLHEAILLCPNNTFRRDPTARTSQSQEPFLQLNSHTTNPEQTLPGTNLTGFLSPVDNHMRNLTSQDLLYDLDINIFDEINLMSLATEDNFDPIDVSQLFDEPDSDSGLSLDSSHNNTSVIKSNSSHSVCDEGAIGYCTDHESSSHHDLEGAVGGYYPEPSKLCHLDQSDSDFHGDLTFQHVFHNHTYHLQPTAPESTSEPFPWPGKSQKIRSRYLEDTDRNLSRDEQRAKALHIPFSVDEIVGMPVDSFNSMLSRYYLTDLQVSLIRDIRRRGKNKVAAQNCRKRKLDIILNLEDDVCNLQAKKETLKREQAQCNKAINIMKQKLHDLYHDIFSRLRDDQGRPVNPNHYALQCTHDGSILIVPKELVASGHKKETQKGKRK

[8] = target: NFIL3 (human) (UniProt Q16649); experiment: as above
Chain of NFIL3 (human) (Q16649 whole entry): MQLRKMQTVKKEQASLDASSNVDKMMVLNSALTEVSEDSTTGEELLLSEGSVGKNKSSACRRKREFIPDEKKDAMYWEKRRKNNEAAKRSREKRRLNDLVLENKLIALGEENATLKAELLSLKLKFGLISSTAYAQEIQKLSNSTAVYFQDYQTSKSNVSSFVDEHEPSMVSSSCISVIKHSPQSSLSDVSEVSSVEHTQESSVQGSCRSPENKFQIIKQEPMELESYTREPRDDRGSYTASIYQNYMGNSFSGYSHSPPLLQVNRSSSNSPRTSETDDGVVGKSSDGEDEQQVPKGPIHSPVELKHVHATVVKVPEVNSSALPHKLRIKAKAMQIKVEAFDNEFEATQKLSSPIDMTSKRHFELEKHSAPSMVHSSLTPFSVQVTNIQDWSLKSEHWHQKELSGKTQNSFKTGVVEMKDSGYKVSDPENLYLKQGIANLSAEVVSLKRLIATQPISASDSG

[9] = target: Activating Transcription Factor (ATF) 3 (human) (UniProt P18847); experiment: FRET or BRET; direct-binding FRET in 384-well plates; rhodamine-labelled design (acceptor) titrated 0 to 1 uM into 10 nM fluorescein-labelled bZIP (donor); 150 mM KCl, 50 mM potassium phosphate pH 7.4, 0.1% Tween-20, 0.1% BSA; 37 °C
[10] = target: MAFF (human) (UniProt Q9ULX9); experiment: as above
Chain of MAFF (human) (Q9ULX9 whole entry): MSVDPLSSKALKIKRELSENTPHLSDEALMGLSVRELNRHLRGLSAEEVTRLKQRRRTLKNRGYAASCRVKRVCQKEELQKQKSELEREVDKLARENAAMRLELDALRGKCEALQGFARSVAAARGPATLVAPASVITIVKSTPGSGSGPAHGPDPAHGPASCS

[11] = target: NFE2L3 (human) (UniProt Q9Y4A8); experiment: as above
[12] = target: ATF5-d1 labeled at the C-terminus; experiment: FRET or BRET; direct-binding FRET of the designed peptide with itself (row 'homodimer'; dimer to monomers); acceptor-labelled design titrated into donor-labelled design by note 1 of the tables; 4 °C
[13] = target: CREBZF (human) (UniProt Q9NS37); experiment: FRET or BRET; direct-binding FRET in 384-well plates; rhodamine-labelled design (acceptor) titrated 0 to 1 uM into 10 nM fluorescein-labelled bZIP (donor); 150 mM KCl, 50 mM potassium phosphate pH 7.4, 0.1% Tween-20, 0.1% BSA; 23 °C
Chain of CREBZF (human) (Q9NS37 whole entry): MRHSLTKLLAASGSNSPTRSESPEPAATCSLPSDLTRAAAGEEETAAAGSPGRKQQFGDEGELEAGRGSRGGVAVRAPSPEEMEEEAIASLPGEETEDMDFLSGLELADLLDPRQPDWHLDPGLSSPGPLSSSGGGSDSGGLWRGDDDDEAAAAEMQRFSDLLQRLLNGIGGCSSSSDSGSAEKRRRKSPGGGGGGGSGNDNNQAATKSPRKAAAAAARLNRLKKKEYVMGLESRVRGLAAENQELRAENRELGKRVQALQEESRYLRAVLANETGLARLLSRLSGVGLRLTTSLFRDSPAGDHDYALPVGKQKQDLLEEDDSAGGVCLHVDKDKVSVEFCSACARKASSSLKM

[14] = target: JUN (Homo sapiens, UniProt P05412); experiment: as above
Chain of JUN (P05412 whole entry): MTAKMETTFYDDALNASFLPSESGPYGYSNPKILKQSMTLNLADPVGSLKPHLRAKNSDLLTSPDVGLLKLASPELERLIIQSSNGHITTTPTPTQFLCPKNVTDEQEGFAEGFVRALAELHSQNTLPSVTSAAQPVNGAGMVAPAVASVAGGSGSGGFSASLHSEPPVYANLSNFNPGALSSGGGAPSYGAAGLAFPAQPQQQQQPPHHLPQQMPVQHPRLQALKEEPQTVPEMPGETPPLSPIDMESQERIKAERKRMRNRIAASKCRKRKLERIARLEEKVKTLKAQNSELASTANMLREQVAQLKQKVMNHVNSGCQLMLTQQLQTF

[15] = target: NFE2L1 (Homo sapiens, UniProt Q14494); experiment: as above
Chain of NFE2L1 (Q14494 whole entry): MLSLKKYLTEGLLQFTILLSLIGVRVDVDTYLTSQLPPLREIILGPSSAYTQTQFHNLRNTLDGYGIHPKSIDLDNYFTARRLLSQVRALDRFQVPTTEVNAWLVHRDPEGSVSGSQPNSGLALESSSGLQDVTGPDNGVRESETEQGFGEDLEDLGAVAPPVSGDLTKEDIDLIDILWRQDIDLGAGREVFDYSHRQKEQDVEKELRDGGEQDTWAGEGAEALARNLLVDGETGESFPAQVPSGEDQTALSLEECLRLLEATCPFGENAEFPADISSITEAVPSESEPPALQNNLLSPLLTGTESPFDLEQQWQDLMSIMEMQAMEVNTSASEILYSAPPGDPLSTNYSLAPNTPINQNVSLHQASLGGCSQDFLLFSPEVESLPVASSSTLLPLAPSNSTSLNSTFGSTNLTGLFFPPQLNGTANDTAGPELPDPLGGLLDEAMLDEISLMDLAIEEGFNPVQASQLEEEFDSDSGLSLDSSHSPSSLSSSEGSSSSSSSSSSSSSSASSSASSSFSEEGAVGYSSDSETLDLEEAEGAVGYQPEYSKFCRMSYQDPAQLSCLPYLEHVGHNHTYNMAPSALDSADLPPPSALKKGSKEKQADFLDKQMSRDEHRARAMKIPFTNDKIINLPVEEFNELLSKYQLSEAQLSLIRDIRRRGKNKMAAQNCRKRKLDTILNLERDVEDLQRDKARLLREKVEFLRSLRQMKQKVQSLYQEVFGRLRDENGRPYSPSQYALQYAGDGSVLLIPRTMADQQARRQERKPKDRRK

[16] = target: BACH2 (Homo sapiens, UniProt Q9BYV9); experiment: FRET or BRET; direct-binding FRET in 384-well plates; rhodamine-labelled design (acceptor) titrated 0 to 1 uM into 10 nM fluorescein-labelled bZIP (donor); 150 mM KCl, 50 mM potassium phosphate pH 7.4, 0.1% Tween-20, 0.1% BSA; 37 °C
Chain of BACH2 (Q9BYV9 whole entry): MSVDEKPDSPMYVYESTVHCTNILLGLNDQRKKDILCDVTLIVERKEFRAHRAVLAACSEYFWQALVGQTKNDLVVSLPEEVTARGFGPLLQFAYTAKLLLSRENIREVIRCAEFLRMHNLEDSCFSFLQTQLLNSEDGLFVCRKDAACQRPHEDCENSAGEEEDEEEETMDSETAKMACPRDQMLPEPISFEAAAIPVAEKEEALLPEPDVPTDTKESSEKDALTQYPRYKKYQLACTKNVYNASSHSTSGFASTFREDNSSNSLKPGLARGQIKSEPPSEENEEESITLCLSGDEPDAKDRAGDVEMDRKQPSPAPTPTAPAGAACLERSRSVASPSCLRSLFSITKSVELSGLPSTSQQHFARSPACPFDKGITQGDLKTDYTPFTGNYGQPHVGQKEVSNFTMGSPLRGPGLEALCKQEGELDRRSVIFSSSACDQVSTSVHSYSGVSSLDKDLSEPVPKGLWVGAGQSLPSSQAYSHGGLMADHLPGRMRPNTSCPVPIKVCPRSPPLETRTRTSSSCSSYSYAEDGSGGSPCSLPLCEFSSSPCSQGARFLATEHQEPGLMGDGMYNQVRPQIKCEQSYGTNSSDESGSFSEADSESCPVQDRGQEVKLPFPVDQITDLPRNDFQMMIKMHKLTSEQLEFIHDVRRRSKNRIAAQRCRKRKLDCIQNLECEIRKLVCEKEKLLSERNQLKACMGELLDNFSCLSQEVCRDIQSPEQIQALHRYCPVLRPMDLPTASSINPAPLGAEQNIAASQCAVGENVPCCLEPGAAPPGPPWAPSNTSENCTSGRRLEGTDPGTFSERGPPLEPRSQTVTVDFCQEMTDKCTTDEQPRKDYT

[17] = target: T2, FOS; experiment: as above

SIAATLEKEEANLEKMNKKLAAEIESLLKEKDKLESVLNYHE [JUN-d1]
IC50 [1]: 245 nM

B1: ATF4-d1 labeled at the C-terminus (designed binder)
chain: GESKEYKKGSGSNQIKTLRTRLSKLRKDNLQLEKDIANLERKAKDLRAEKEQLEYELGC
modifications: also: C59 label by assay: Rhodamine Red C2-maleimide or fluorescein-5-maleimide
notes: solubility linker after the His6 tag; added to the C-terminus for labeling; one molecule for the rhodamine- and the fluorescein-labelled form; the assay tells which label stood there; also called ATF4-d1-Rhodamine; ATF4-d1-FITC; source: E. coli RP3098, purified (Ni-NTA under denaturing conditions, reverse-phase HPLC)
Kd [2]: 1000 nM
Kd [3]: 1000 nM
Kd [4]: > 5000 nM
Kd [5]: > 5000 nM
Kd [6]: 1000 nM
Kd [7]: 1000 nM
Kd [8]: > 5000 nM
Kd [9]: > 5000 nM
Kd [10]: 327 nM
Kd [11]: > 5000 nM

B2: ATF5-d1 labeled at the C-terminus (designed binder)
chain: GESKEYKKGSGSKRIAYLRQRIAELRNENHVLESRIQRMEKEKDALQQDRDHLEYELGC(Rhodamine Red C2‑maleimide)
modifications: not fully specified
Kd [12]: 1000 nM
Kd [13]: > 5000 nM
Kd [14]: > 5000 nM
Kd [15]: > 5000 nM
Kd [16]: > 5000 nM
Kd [17]: > 5000 nM
